Assay results taken from article PMC11136987 (2024).

What was measured:
[1] = target: recombinant full-length HAX-1 (UniProt O00165 1-279); experiment: BLI
[2] = target: recombinant full-length ASC (UniProt Q9ULZ3 1-195); experiment: BLI
Chain of recombinant full-length ASC (Q9ULZ3 whole entry): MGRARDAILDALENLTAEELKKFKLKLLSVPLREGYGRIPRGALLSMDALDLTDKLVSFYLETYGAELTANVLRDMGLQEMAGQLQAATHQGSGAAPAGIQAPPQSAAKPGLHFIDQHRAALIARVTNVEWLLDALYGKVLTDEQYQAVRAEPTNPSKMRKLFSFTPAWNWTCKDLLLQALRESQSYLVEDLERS

Chain of recombinant full-length HAX-1 (O00165 whole entry): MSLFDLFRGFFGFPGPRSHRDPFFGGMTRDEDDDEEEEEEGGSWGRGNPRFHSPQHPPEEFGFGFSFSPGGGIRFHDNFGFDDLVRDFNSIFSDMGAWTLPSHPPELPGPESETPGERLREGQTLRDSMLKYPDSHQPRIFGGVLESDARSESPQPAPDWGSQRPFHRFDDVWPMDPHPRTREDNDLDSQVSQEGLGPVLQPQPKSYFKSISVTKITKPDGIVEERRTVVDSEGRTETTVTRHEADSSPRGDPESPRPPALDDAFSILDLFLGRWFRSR

B1: recombinant partial NLRP3 1-536aa (domain or fragment)
chain: MKMASTRCKLARYLEDLEDVDLKKFKMHLEDYPPQKGCIPLPRGQTEKADHVDLATLMIDFNGEEKAWAMAVWIFAAINRRDLYEKAKRDEPKWGSDNARVSNPTVICQEDSIEEEWMGLLEYLSRISICKMKKDYRKKYRKYVRSRFQCIEDRNARLGESVSLNKRYTRLRLIKEHRSQQEREQELLAIGKTKTCESPVSPIKMELLFDPDDEHSEPVHTVVFQGAAGIGKTILARKMMLDWASGTLYQDRFDYLFYIHCREVSLVTQRSLGDLIMSCCPDPNPPIHKIVRKPSRILFLMDGFDELQGAFDEHIGPLCTDWQKAERGDILLSSLIRKKLLPEASLLITTRPVALEKLQHLLDHPRHVEILGFSEAKRKEYFFKYFSDEAQARAAFSLIQENEVLFTMCFIPLVCWIVCTGLKQQMESGKSLAQTSKTTTAVYVFFLSSLLQPRGGSQEHGLCAHLWGLCSLAADGIWNQKILFEESDLRNHGLQKADVSAFLRMNLFQKEVDCEKFYSFIHMTFQEFFAAMYYLL
modifications: biotinylated (sites not given)
[1]
  Kd: 3.38 nM
[2]
  Kd: 7.33 nM
